From patent US20030143656A1 (published 2003) come the findings set out here.

The labels stand for the following.
B2: GST-PDK1 K115A (enzyme, not shown: a dimerising Fc or GST; small tags and cut ends)
chain: MARTTSQLYDAVPIQSSVVLCSCPSPSMVRTQTESSTPPGIPGGSRQGPAMDGTAAEPRPGAGSLQHAQPPPQPRKKRPEDFKFGKILGEGSFSTVVLARELATSREYAIKILEARHIIKENKVPYVTRERDVMSRLDHPFFVKLYFTFQDDEKLYFGLSYAKNGELLKYIRKIGSFDETCTRFYTAEIVSALEYLHGKGIIHRDLKPENILLNEDMHIQITDFGTAKVLSPESKQARANSFVGTAQYVSPELLTEKSACKSSDLWALGCIIYQLVAGLPPFRAGNEYLIFQKIIKLEYDFPEKFFPKARDLVEKLLVLDATKRLGCEEMEGYGPLKAHPFFESVTWENLHQQTPPKLTAYLPAMSEDDEDCYGNYDNLLSQFGCMQVSSSSSSHSLSASDTGLPQRSGSNIEQYIHDLDSNSFELDLQFSEDEKRLLLEKQAGGNPWHQFVENNLILKMGPVDKRKGLFARRRQLLLTEGPHLYYVDPVNKVLKGEIPWSQELRPEAKNFKTFFVHTPNRTYYLMDPSGNAHKWCRKIQEVWRQRYQSHPDAAVQ
B3: GST-PDK1 Q150A (enzyme, human, UniProt O15530 1-556, looked up)
chain: MARTTSQLYDAVPIQSSVVLCSCPSPSMVRTQTESSTPPGIPGGSRQGPAMDGTAAEPRPGAGSLQHAQPPPQPRKKRPEDFKFGKILGEGSFSTVVLARELATSREYAIKILEKRHIIKENKVPYVTRERDVMSRLDHPFFVKLYFTFADDEKLYFGLSYAKNGELLKYIRKIGSFDETCTRFYTAEIVSALEYLHGKGIIHRDLKPENILLNEDMHIQITDFGTAKVLSPESKQARANSFVGTAQYVSPELLTEKSACKSSDLWALGCIIYQLVAGLPPFRAGNEYLIFQKIIKLEYDFPEKFFPKARDLVEKLLVLDATKRLGCEEMEGYGPLKAHPFFESVTWENLHQQTPPKLTAYLPAMSEDDEDCYGNYDNLLSQFGCMQVSSSSSSHSLSASDTGLPQRSGSNIEQYIHDLDSNSFELDLQFSEDEKRLLLEKQAGGNPWHQFVENNLILKMGPVDKRKGLFARRRQLLLTEGPHLYYVDPVNKVLKGEIPWSQELRPEAKNFKTFFVHTPNRTYYLMDPSGNAHKWCRKIQEVWRQRYQSHPDAAVQ
notes: range 1-556; not shown: N-terminal GST tag, pEBG2T vector
B4: GST-PDK1 L155A (enzyme, human, UniProt O15530 1-556, looked up)
chain: MARTTSQLYDAVPIQSSVVLCSCPSPSMVRTQTESSTPPGIPGGSRQGPAMDGTAAEPRPGAGSLQHAQPPPQPRKKRPEDFKFGKILGEGSFSTVVLARELATSREYAIKILEKRHIIKENKVPYVTRERDVMSRLDHPFFVKLYFTFQDDEKAYFGLSYAKNGELLKYIRKIGSFDETCTRFYTAEIVSALEYLHGKGIIHRDLKPENILLNEDMHIQITDFGTAKVLSPESKQARANSFVGTAQYVSPELLTEKSACKSSDLWALGCIIYQLVAGLPPFRAGNEYLIFQKIIKLEYDFPEKFFPKARDLVEKLLVLDATKRLGCEEMEGYGPLKAHPFFESVTWENLHQQTPPKLTAYLPAMSEDDEDCYGNYDNLLSQFGCMQVSSSSSSHSLSASDTGLPQRSGSNIEQYIHDLDSNSFELDLQFSEDEKRLLLEKQAGGNPWHQFVENNLILKMGPVDKRKGLFARRRQLLLTEGPHLYYVDPVNKVLKGEIPWSQELRPEAKNFKTFFVHTPNRTYYLMDPSGNAHKWCRKIQEVWRQRYQSHPDAAVQ
notes: as for B3
B5: PIFtide (peptide)
peptide: REPRILSEEEQEMFRDFDYIADWC

One series deals with T1, GST-PDK1 (wild type) (human, UniProt O15530 1-556).
T1 sequence (looked up): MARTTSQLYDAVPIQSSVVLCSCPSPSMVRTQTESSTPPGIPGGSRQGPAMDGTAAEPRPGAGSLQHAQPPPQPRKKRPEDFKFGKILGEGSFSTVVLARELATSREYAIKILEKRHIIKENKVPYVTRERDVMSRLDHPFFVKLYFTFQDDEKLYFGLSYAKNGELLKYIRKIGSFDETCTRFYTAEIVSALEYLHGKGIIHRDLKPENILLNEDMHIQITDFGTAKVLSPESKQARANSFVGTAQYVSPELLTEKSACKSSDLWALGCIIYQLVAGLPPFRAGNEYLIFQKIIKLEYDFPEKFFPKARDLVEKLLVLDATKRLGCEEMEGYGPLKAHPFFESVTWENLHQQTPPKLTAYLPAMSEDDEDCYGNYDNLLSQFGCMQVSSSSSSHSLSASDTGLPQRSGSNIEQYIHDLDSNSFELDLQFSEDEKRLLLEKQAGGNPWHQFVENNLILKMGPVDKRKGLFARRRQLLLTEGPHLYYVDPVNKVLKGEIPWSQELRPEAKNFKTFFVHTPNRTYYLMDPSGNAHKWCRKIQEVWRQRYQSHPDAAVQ
Description: cell-based or functional assay.

For series [1], the target named is B5. Description: method not stated (reference mark lost).
For series [2], the target named is B5. Description: method not stated (unpublished data).
The target of the series “GST-PDK1 K115A” is B2. Description: cell-based or functional assay.
The series “GST-PDK1 Q150A” has as its target B3. Description: cell-based or functional assay.
The target of the series “GST-PDK1 L155A” is B4. Description: cell-based or functional assay.

B1: D978A-PIFtide (peptide)
peptide: REPRILSEEEQEMFRDFAYLADWC
In the case of B1, the “fold decrease in activation of PDK1 towards T308tide, against wild type PIFtide” value with GST-PDK1 (wild type) was determined as 8 fold.
For the molecule B2, the “fold decrease in affinity for PIFtide” value with PIFtide [1] is around 10 fold.
B3: in the series with PIFtide [1], the “fold decrease in affinity for PIFtide” value was around 10 fold.
As for B4, in the series with PIFtide [2], the “fold decrease in affinity for PIFtide” value is around 10 fold.
On to B5, for which, in the series with GST-PDK1 (wild type), the “increase of PDK1 activity towards T308tide” value is at most 4 fold, the “increase of TM50 (heat inactivation of GST-PDK1)” value was in the range of 8 to 10 °C and the “inhibition by 2 µM PIFtide of the activation of S6K1[T412E] by wild type PDK1” value is above 20 fold. Further, in the series with GST-PDK1 K115A, the “inhibition by 2 µM PIFtide of the activation of S6K1-T2[T412E] and SGK1[T422D] by the PDK1 mutant” value (from here on “inhibition by 2 µM PIFtide … by the PDK1 mutant”) was around 50%; the “inhibition by 35 µM PIFtide of the activation of S6K1-T2[T412E] and SGK1[T422D] by the PDK1 mutant” value (“inhibition by 35 µM PIFtide” below) is above 95%. Besides, in the series with GST-PDK1 Q150A, the “inhibition by 2 µM PIFtide … by the PDK1 mutant” value is around 50%; the “inhibition by 35 µM PIFtide” value is above 95%; the “stimulation of the PDK1 mutant towards T308tide by PIF” value was around 2 fold. For the same molecule, in the series with GST-PDK1 L155A, the “inhibition by 2 µM PIFtide … by the PDK1 mutant” value is around 50%; the “inhibition by 35 µM PIFtide” value is above 95%.
